In US20230012273A1:

Experiments:
[1] = target: ED-tagged human SIRPα V2 receptor on Jurkat signaling reporter cells (human) (UniProt P78324); experiment: cell-based or functional assay
[2] = target: ED-tagged human SIRPα V1 receptor on Jurkat signaling reporter cells (human) (UniProt P78324); experiment: cell-based or functional assay
Sequence of ED-tagged human SIRPα V1 receptor on Jurkat signaling reporter cells (human) (P78324 31-504): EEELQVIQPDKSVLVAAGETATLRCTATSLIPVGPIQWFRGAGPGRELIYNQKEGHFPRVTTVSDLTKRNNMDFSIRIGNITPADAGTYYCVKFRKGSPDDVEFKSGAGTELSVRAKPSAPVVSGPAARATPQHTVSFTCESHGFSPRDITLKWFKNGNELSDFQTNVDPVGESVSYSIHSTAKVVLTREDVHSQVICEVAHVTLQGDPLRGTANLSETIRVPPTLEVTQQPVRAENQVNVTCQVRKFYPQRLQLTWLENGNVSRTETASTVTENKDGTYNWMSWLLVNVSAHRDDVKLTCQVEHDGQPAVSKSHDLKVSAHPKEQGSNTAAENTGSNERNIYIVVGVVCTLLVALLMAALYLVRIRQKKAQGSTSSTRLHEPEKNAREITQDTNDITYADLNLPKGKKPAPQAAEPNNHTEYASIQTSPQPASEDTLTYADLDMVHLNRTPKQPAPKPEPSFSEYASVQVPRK

Sequence of Anti-SIRPα antibody KWAR23 (VH): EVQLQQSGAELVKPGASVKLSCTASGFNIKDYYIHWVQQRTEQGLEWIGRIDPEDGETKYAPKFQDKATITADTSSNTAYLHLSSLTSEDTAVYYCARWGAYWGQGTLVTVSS
Sequence of Anti-SIRPα antibody KWAR23 (VL): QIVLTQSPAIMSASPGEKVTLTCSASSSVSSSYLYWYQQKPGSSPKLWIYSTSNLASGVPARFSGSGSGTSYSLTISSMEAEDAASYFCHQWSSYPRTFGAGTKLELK
Sequence of ED-tagged human SIRPα V2 receptor on Jurkat signaling reporter cells (human) (P78324 31-504): as the sequence (P78324 31-504) above

Blockade of Cellular CD47-Mediated SIRPα Signaling; IC50 [1]: 0.04 nM
Blockade of Cellular CD47-Mediated SIRPα Signaling; IC50 [2]: 0.04 nM
Substance: Anti-SIRPα antibody KWAR23
